Where no end group is shown, it is not given here.
T1: soluble DR 3 (DRB1*0301) class II molecules purified from WT49 EBV-B cells (human), P01903
T1 chain 1: not shown
T1 chain 2: not shown

T2: soluble DR 7 (DRB1*0701) class II molecules purified from EKR EBV-B cells (human), P01903
T2 chain 1: not shown
T2 chain 2: not shown

T3: soluble DR 8 (DRB1*0801) class II molecules purified from BM9 EBV-B cells (human), P01903
T3 chain 1: not shown
T3 chain 2: not shown

T4: soluble DR4 (DRB1*0401) class II molecules purified from BSM or PREISS EBV-B cells (human), P01903
T4 chain 1: not shown
T4 chain 2: not shown

T5: soluble DR 1 (DRB1*0101) class II molecules purified from HOM-2 EBV-B cells (human), P01903
T5 chain 1: not shown
T5 chain 2: not shown

T6: soluble DR 2a (DRB5*0101) molecules isolated from L cells transfectant L416.3 (human), P01903
T6 chain 1: not shown
T6 chain 2: not shown

T7: DR molecule DRA1*0101/DRB1*0701 on transfected murine L cells (human), P01903
T7 chain 1: not shown
T7 chain 2: not shown

T8: DR molecule DRA1*0101/DRB1*0401 on transfected murine L cells (human), P01903
T8 chain 1: not shown
T8 chain 2: not shown


Assays:
[1] = target: T1, soluble DR 3 (DRB1*0301) class II …; experiment: peptide competition ELISA, soluble DR 3, biotinylated indicator IAYD(A)5
[2] = target: T2, soluble DR 7 (DRB1*0701) class II …; experiment: peptide competition ELISA, soluble DR 7, biotinylated indicator GFK(A)7, pH 5
[3] = target: T3, soluble DR 8 (DRB1*0801) class II …; experiment: peptide competition ELISA, soluble DR 8, biotinylated indicator GYR(A)6L
[4] = target: T4, soluble DR4 (DRB1*0401) class II …; experiment: peptide competition ELISA, soluble DR4, biotinylated indicator GFK(A)7
[5] = target: soluble DR 11 (DRB1*1101) class II molecules purified from SWEIG EBV-B cells (human), P01903; experiment: peptide competition ELISA, soluble DR 11, biotinylated indicator TT831-843
[6] = target: T5, soluble DR 1 (DRB1*0101) class II …; experiment: peptide competition ELISA, soluble DR 1, biotinylated indicator GFK(A)7
[7] = target: T4, soluble DR4 (DRB1*0401) class II …; experiment: peptide competition ELISA, soluble DR 4, biotinylated indicator UD4
[8] = target: T6, soluble DR 2a (DRB5*0101) molecules …
[9] = target: T7, DR molecule DRA1*0101/DRB1*0701 on …; experiment: FACS, biotinylated peptide 100 µg/ml on DR-transfected murine L cells
[10] = target: T8, DR molecule DRA1*0101/DRB1*0401 on …; experiment: as above

Row | Binder | IC50 [1] | IC50 [2] | IC50 [3] | IC50 [4] | IC50 [5] | IC50 [6] | IC50 [7] | IC50 [8] | MFC (mean fluorescence channel) [9] | MFC (mean fluorescence channel) [10]
1 | DPNANPNVDPNANPNV (modifications not checked) | > 100 µM | > 100 µM | > 100 µM | > 100 µM | > 100 µM | > 100 µM | > 100 µM | > 100 µM | – | –
2 | DPNANPNVDPNANPNV (not fully specified (N-terminus)) [NH2 terminal biotinylated T1 peptide] | – | – | – | – | – | – | – | – | 35.7 MFC | 18.9 MFC

From patent US20050249750A1
